Measured values: US20230406922A1 (SIMCERE ZAIMING PHARMACEUTICAL, published 2023)
Numbering of substitutions follows the chain as printed.

T1: human CD19-his protein (human, UniProt P15391 20-291)
T1 construct: also called recombinant human CD19-His; human CD19 protein; not shown: His tag
T1 sequence (looked up): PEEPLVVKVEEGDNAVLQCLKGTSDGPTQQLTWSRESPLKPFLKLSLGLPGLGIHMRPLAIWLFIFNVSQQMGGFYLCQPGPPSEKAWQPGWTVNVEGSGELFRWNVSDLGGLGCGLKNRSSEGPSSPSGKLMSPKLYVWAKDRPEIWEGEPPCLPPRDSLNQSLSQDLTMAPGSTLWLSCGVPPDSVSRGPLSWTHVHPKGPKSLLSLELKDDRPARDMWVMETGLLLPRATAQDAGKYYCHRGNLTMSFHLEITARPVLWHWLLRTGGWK

T2: murine CD19 protein (murine, UniProt P25918 19-287, limits assumed)
T2 construct: also called mouse CD19-his protein
T2 sequence (looked up): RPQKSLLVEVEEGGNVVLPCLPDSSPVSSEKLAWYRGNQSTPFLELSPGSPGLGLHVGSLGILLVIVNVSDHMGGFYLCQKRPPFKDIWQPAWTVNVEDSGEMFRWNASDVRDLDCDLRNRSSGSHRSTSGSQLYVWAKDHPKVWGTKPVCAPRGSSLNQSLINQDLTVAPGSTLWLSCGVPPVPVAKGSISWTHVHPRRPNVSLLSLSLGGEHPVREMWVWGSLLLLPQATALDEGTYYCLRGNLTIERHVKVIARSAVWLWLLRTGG

B1: FMC63.26-mIgG1 (antibody, V domains shown)
VH: EVTLKESGPVLVKPTETLTLTCTVSGFSLPDYGVSWIRQPPGKALEWLAVIWGSETTYYNSALKSRLTISKDTSKSQVVLTMTNMDPVDTATYYCAKHYYYGGSYAMDYWGQGTTVTVSS
VL: DIQMTQSPSSLSASVGDRVTITCRASQDISKYLNWYQQKPGGAVKLLIYHTSRLHSGVPSRFSGSGSGTDYTLTISSLQPEDFATYYCQQGNTLPYTFGGGTKVEIKR
notes: Humanized FMC63; also called FMC63-L2H6
B2: FMC63.27-mIgG1 (antibody, V domains shown)
VH: B1 VH with F27V, T73N
VL: B1 VL
notes: Humanized FMC63; also called FMC63-L2H7
B3: FMC63.25-mIgG1 (antibody, V domains shown)
VH: B1 VH with P30S
VL: B1 VL
notes: Humanized FMC63; also called FMC63-L2H5

target: T1, human CD19-his protein; assay: SPR (Biacore), antibody captured on Protein A chip, human CD19-His as analyte, 1:1 Langmuir model
Description: The anti-human CD19 antibody was captured using a Protein A chip (GE Healthcare; 29-127-558). The sample and running buffer was HBS-EP+(10 mM HEPES, 150 mM NaCl, 3 mM EDTA, 0.05% surfactant P20) (GE Healthcare; BR-1006-69). The flow cell was set at 25° C. The sample block was set at 16° C. Both were pretreated with the running buffer. In each cycle, first, the test antibody was captured using the Protein A chip, and then a single concentration of CD19 antigen protein was injected. The association and dissociation processes of the antibody with the antigen protein were recorded, and finally, the chip was regenerated using Glycine pH 1.5 (GE Healthcare; BR-1003-54). The association was determined by injecting different concentrations of recombinant human CD19-His in the solution and maintaining for 240 s, wherein the flow rate was 30 μL/min, and the protein was diluted in a 1:1 dilution ratio from 200 nM (see detailed results for actual concentrations tested) to obtain 5 concentrations in total. The dissociation phase was monitored for up to 600 s and triggered by switching from the sample solution to the running buffer. The surface was regenerated by washing with 10 mM glycine solution (pH 1.5) at a flow rate of 30 μL/min for 30 s. The difference in bulk refractive index was corrected by subtracting the responses obtained from the goat anti-human Fc surface. Blank injections were also subtracted (double reference). To calculate the apparent KD and other kinetic parameters, the Langmuir 1:1 model was used.

| Kd | koff | kon | Binder |
| --- | --- | --- | --- |
| 0.346 nM | 3.36e-05 s⁻¹ | 97200 M⁻¹ s⁻¹ | B1 |
| 1.81 nM | 0.000152 s⁻¹ | 84200 M⁻¹ s⁻¹ | B2 |
| 0.0195 nM | 1.8e-06 s⁻¹ | 92400 M⁻¹ s⁻¹ | B3 |

target: T2, murine CD19 protein; assay: ELISA, murine CD19 coated

| binding result | Binder |
| --- | --- |
| no binding (tested: 100 nM) | B1 |
| no binding (tested: 100 nM) | B2 |
| no binding (tested: 100 nM) | B3 |

target: T2, murine CD19 protein; assay: ELISA, murine CD19 coated; remark: another data set of the same source

| OD450 at 0.0001 nM | OD450 at 0.001 nM | OD450 at 0.01 nM | OD450 at 0.10 nM | OD450 at 1.00 nM | OD450 at 10.00 nM | OD450 at 100.00 nM | Binder |
| --- | --- | --- | --- | --- | --- | --- | --- |
| 0.08 OD450 | 0.07 OD450 | 0.06 OD450 | 0.07 OD450 | 0.08 OD450 | 0.09 OD450 | 0.13 OD450 | B1 |
| 0.06 OD450 | 0.06 OD450 | 0.06 OD450 | 0.05 OD450 | 0.06 OD450 | 0.08 OD450 | 0.11 OD450 | B2 |
| 0.08 OD450 | 0.08 OD450 | 0.08 OD450 | 0.08 OD450 | 0.08 OD450 | 0.08 OD450 | 0.09 OD450 | B3 |

target: T1, human CD19-his protein; assay: ELISA, human CD19-his coated at 4 ug/mL
Description: A human CD19-his protein (purchased from ACROBiosystems, Cat. No. CD9-H52H2) was diluted with PBS to make a final concentration of 4 μg/mL, and then added into a 96-well ELISA plate at 100 μL/well. The plate was sealed with a plastic film and incubated at 4° C. overnight, wash twice with PBS the next day, and blocked at room temperature for 2 h by adding a blocking solution [PBS +2% (w/w) BSA]. […] After incubation for 2 h at 37° C., the plate was washed 3 times with PBS. […] After incubation for 1 h at 37° C., the plate was washed 5 times with PBS. A TMB substrate was added at 50 μL/well. After incubation at room temperature for 10 min, a stop solution (1.0 N HCl) was added at 50 μL/well. The OD450 nm values were read on an ELISA microplate reader (Multimode Plate Reader, EnSight, purchased from Perkin Elmer). […] The negative control antibody mIgG1 was an antibody against hen egg lysozyme, anti-hel-mIgG1 (purchased from Biointron, Cat. No. B118301), and the data in the table were OD450 nm values.

| OD450 at 0.0001 nM | OD450 at 0.001 nM | OD450 at 0.01 nM | OD450 at 0.10 nM | OD450 at 1.00 nM | OD450 at 10.00 nM | OD450 at 100.00 nM | Binder |
| --- | --- | --- | --- | --- | --- | --- | --- |
| 0.11 OD450 | 0.15 OD450 | 0.38 OD450 | 1.54 OD450 | 2.37 OD450 | 2.38 OD450 | 2.59 OD450 | B1 |
| 0.11 OD450 | 0.16 OD450 | 0.39 OD450 | 1.52 OD450 | 2.29 OD450 | 2.32 OD450 | 2.64 OD450 | B2 |
| 0.13 OD450 | 0.17 OD450 | 0.51 OD450 | 1.71 OD450 | 2.44 OD450 | 2.46 OD450 | 2.75 OD450 | B3 |
